Source: paper PMC5397184 (Nucleic Acids Research, 2017)

B1: E. coli Hda (full-length, wild type) (natural protein)
chain: MNTPAQLSLPLYLPDDETFASFWPGDNSSLLAALQNVLRQEHSGYIYLWAREGAGRSHLLHAACAELSQRGDAVGYVPLDKRTWFVPEVLDGMEHLSLVCIDNIECIAGDELWEMAIFDLYNRILESGKTRLLITGDRPPRQLNLGLPDLASRLDWGQIYKLQPLSDEDKLQALQLRARLRGFELPEDVGRFLLKRLDREMRTLFMTLDQLDRASITAQRKLTIPFVKEILKL
B2: E. coli Hda hook mutant (K81S, W84S, F85S) (natural protein)
chain: MNTPAQLSLPLYLPDDETFASFWPGDNSSLLAALQNVLRQEHSGYIYLWAREGAGRSHLLHAACAELSQRGDAVGYVPLDSRTSSVPEVLDGMEHLSLVCIDNIECIAGDELWEMAIFDLYNRILESGKTRLLITGDRPPRQLNLGLPDLASRLDWGQIYKLQPLSDEDKLQALQLRARLRGFELPEDVGRFLLKRLDREMRTLFMTLDQLDRASITAQRKLTIPFVKEILKL
B3: E. coli Hda W156A (natural protein)
chain: MNTPAQLSLPLYLPDDETFASFWPGDNSSLLAALQNVLRQEHSGYIYLWAREGAGRSHLLHAACAELSQRGDAVGYVPLDKRTWFVPEVLDGMEHLSLVCIDNIECIAGDELWEMAIFDLYNRILESGKTRLLITGDRPPRQLNLGLPDLASRLDAGQIYKLQPLSDEDKLQALQLRARLRGFELPEDVGRFLLKRLDREMRTLFMTLDQLDRASITAQRKLTIPFVKEILKL

Columns and labels:
crystal structure = molecular target: the molecule itself; assay: crystal structure
[1] = molecular target: T1, E. coli β sliding clamp (wild type, His-tagged) (E. coli, UniProt P0A988 1-366); assay: crystal structure
T1 sequence (P0A988 whole entry): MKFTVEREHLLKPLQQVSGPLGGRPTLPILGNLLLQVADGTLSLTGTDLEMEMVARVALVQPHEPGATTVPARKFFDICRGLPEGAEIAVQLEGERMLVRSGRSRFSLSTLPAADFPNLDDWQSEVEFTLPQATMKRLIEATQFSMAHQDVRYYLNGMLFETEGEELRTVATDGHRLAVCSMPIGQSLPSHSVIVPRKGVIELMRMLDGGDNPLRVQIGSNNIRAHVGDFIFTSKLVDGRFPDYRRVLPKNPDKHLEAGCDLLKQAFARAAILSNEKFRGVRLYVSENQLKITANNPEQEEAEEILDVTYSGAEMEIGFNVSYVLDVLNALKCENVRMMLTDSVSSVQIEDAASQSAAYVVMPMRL

[2] = molecular target: T1, E. coli β sliding clamp (wild type, …); assay: SEC-MALS

Binder	binding result (crystal structure)	binding result [1]	binding result [2]
B1	binds	binds	
B2			binds
B3			binds
